One may read the stoichiometry N as a count of units in the complex or per binding partner.

The values below come from article PMC8092243, “Cryo-EM Structures of CusA Reveal a Mechanism of Metal-Ion Export” (mBio, 2021).

The data set deals with the molecule itself. In words: cryo-EM structure; CusA in lipid nanodiscs (MSP 1E3D1, E. coli total extract lipid), 0.7 mg/ml (2 uM), incubated with 20 uM Cu(I), 20 mM HEPES-NaOH pH 7.0; four trimer classes (EEE, EEB, EBB, BBB) from one sample.

B1: CusA heavy-metal efflux pump (natural protein, E. coli)
chain: MIEWIIRRSVANRFLVLMGALFLSIWGTWTIINTPVDALPDLSDVQVIIKTSYPGQAPQIVENQVTYPLTTTMLSVPGAKTVRGFSQFGDSYVYVIFEDGTDPYWARSRVLEYLNQVQGKLPAGVSAELGPDATGVGWIYEYALVDRSGKHDLADLRSLQDWFLKYELKTIPDVAEVASVGGVVKEYQVVIDPQRLAQYGISLAEVKSALDASNQEAGGSSIELAEAEYMVRASGYLQTLDDFNHIVLKASENGVPVYLRDVAKVQIGPEMRRGIAELNGEGEVAGGVVILRSGKNAREVIAAVKDKLETLKSSLPEGVEIVTTYDRSQLIDRAIDNLSGKLLEEFIVVAVVCALFLWHVRSALVAIISLPLGLCIAFIVMHFQGLNANIMSLGGIAIAVGAMVDAAIVMIENAHKRLEEWQHQHPDATLDNKTRWQVITDASVEVGPALFISLLIITLSFIPIFTLEGQEGRLFGPLAFTKTYAMAGAALLAIVVIPILMGYWIRGKIPPESSNPLNRFLIRVYHPLLLKVLHWPKTTLLVAALSVLTVLWPLNKVGGEFLPQINEGDLLYMPSTLPGISAAEAASMLQKTDKLIMSVPEVARVFGKTGKAETATDSAPLEMVETTIQLKPQEQWRPGMTMDKIIEELDNTVRLPGLANLWVPPIRNRIDMLSTGIKSPIGIKVSGTVLADIDAMAEQIEEVARTVPGVASALAERLEGGRYINVEINREKAARYGMTVADVQLFVTSAVGGAMVGETVEGIARYPINLRYPQSWRDSPQALRQLPILTPMKQQITLADVADIKVSTGPSMLKTENARPTSWIYIDARDRDMVSVVHDLQKAIAEKVQLKPGTSVAFSGQFELLERANHKLKLMVPMTLMIIFVLLYLAFRRVGEALLIISSVPFALVGGIWLLWWMGFHLSVATGTGFIALAGVAAEFGVVMLMYLRHAIEAVPSLNNPQTFSEQKLDEALYHGAVLRVRPKAMTVAVIIAGLLPILWGTGAGSEVMSRIAAPMIGGMITAPLLSLFIIPAAYKLMWLHRHRVRK
notes: CusA, heavy-metal efflux (HME) RND pump of Escherichia coli; the cusA gene cloned into pET15b; the cryo-EM models incorporate residues Ile-5 to Trp-1039; Homotrimer embedded in lipid nanodiscs, in the presence of Cu(I); The membrane scaffold protein MSP 1E3D1 of the nanodisc is not a studied partner; also called CusA membrane protein; CusA trimer
For B1, the “stoichiometry N” value worked out at 3.
